According to the Human Domainome abundance scans (Beltran et al. 2025):

B1: Integrator complex subunit 12, residues 155 to 213; numbered along this chain, Q96CB8 (parent)
chain: AMEMGLACVVCRQMMVASGNQLVECQECHNLYHRDCHKPQVTDKEANDPRLVWYCARCT

Variants of: B1
Assay: abundance fitness (aPCA) (normalised: wild type 0, dead -1); higher = more abundant; growth selection in yeast, the domain comes from the species named
Conditions: Homo sapiens

Abundance fitness, by site and new letter:
N47: T -0.075 | F -0.162 | C -0.013 | Q -0.092 | P -0.2 | Y -0.223 | E -0.005 | S 0.035 | A -0.166 | L -0.05 | M -0.105 | W -0.154 | I -0.11 | K -0.046 | H 0.011 | V -0.066 | G 0.02
K44: R -0.042 | D 0.078 | G 0.023 | E 0.042 | L -0.121 | N 0.119 | T 0.043 | M -0.036 | Y -0.486 | F -0.139 | S -0.074 | P -0.076 | V -0.038 | Q -0.081 | A 0.008 | I 0.024 | C 0.059 | H -0.124 | W -0.306
T42: H -0.089 | W -0.198 | P 0.039 | A -0.024 | E -0.066 | V -0.136 | N -0.041 | Q -0.064 | C 0.069 | D -0.107 | M -0.153 | F -0.24 | G 0 | I -0.281 | Y -0.165 | K -0.01
D35: L 0.06 | R -0.029 | H 0.071 | T 0.023 | W -0.089 | S -0.034 | K -0.087 | N -0.052 | Q 0.094 | I -0.079 | M 0.042 | V -0.083 | Y -0.074 | P -0.215
A46: E -0.061 | D -0.092 | P -0.202 | R -0.089 | V 0.008 | C -0.149 | L 0.003 | Q -0.079 | T -0.136 | M -0.201 | K 0.05 | N -0.082 | Y -0.029 | H -0.181 | F 0.07 | S -0.075 | G -0.029 | W -0.063 | I -0.077
H37: L -0.145 | E -0.223 | S -0.088 | Y -0.249 | T -0.101 | M 0.031 | P -0.645 | Q -0.176 | V -0.075 | F -0.226 | D -0.002 | K -0.379 | N -0.144 | G -0.148 | I -0.007 | R -0.315 | W -0.297 | A -0.048 | C -0.144
W53: T -0.13 | H -0.266 | R -0.147 | K -0.146 | P -0.302 | V -0.398 | N -0.112 | Q -0.205 | M -0.252 | D -0.104 | G -0.27 | C -0.453 | A -0.115 | L -0.283 | F -0.045 | Y -0.322
E45: N -0.074 | G -0.222 | L -0.048 | Q -0.014 | M -0.193 | C -0.111 | I -0.213 | D 0.005 | P -0.222 | H -0.134 | A -0.087 | V -0.038 | Y 0.005 | R -0.207 | F -0.192 | T -0.052 | K 0.073 | W -0.248
D48: P -0.214 | E -0.054 | R -0.154 | H -0.081 | Y -0.178 | L -0.138 | I -0.187 | K -0.027 | N -0.128 | F -0.254 | T 0.016 | C -0.265 | S -0.119 | W -0.149 | G -0.083 | V -0.063 | M -0.085 | Q -0.002
V41: T -0.165 | H -0.639 | Y -0.346 | S -0.204 | N -0.481 | C -0.276 | L -0.011 | E -0.303 | I 0.135 | P -0.211 | R -0.308 | G -0.235 | W -0.314 | F -0.175 | D -0.297
Y54: A -0.093 | P -0.35 | E -0.069 | N 0.007 | H 0.119 | R 0.116 | G -0.187 | I -0.113 | Q 0.027 | L 0.026
L51: F -0.048 | Q 0.02 | A 0.042 | N -0.197 | I -0.282 | W -0.108 | G 0.069 | S 0.049 | E 0.056 | D 0.013 | R 0.062 | K 0.089 | P 0.035 | Y -0.169 | V -0.003 | H 0.063 | T 0.037
D43: R -0.25 | Y -0.161 | W -0.189 | C -0.078 | N 0.043 | E -0.037 | I -0.073 | V -0.057 | L -0.098 | S -0.074 | M -0.056 | F -0.118 | H -0.155 | T -0.08 | P -0.093 | K -0.163 | Q -0.123 | A -0.05
P49: C -0.318 | Y -0.258 | L -0.101 | T 0.023 | F -0.333 | H -0.132 | K 0.001 | S -0.007 | E 0.027 | G 0.062 | I 0.002 | N -0.17 | R -0.022 | V -0.082 | A -0.046 | M -0.06 | D 0.026
V52: D 0.025 | C -0.009 | K 0.103 | L -0.018 | A 0.036 | I -0.095 | T 0.034 | W -0.36 | N -0.012 | F -0.126 | M -0.033 | G 0.023 | R -0.032 | Y -0.284 | P 0.019 | H -0.036
R50: H -0.06 | G 0.014 | L -0.068 | W -0.206 | A 0.014 | V -0.177 | S 0.057 | P -0.033 | M -0.028 | E 0.02 | T 0.041 | Q -0.059 | C -0.104 | K 0.025 | D -0.017 | I -0.242 | F -0.126 | N 0.15
C36: E -0.696 | L -0.763 | R -0.619 | K -0.79 | G -0.606 | F -0.775 | T -0.588 | Y -0.727 | P -0.585 | H -0.516 | D -0.802 | S -0.716 | M -0.63 | I -0.691 | V -0.73 | Q -0.672 | A -0.671 | W -0.843 | N -0.615
Q40: V -0.063 | C 0.148 | A -0.002 | H -0.055 | Y -0.264 | W -0.102 | T 0.02 | E -0.04 | L -0.045 | M -0.112 | I 0.023 | K -0.035 | F -0.023 | G 0.001 | P -0.009 | D -0.07 | N 0.051
P39: F -0.308 | W -0.363 | G -0.28 | I -0.184 | Y -0.295 | C 0.045 | M -0.248 | T -0.087 | N -0.144 | L -0.294 | V -0.257 | R -0.279 | H -0.347 | A -0.313 | S -0.228
K38: P -0.309 | V 0.035 | G -0.15 | Y -0.134 | R -0.028 | C -0.089 | E 0.008 | S 0.016 | D 0.081 | M -0.05 | L -0.096 | Q -0.015 | W -0.341 | N -0.209 | F -0.139 | T 0.011
